According to PMC7356834:

How the values were obtained:
[1] = system: T1, APASM_1021 (AdpA-like protein) (Actinosynnema pretiosum ATCC 31280), ORF:1b9350d8; assay: competition; conditions: 10 mM Tris-HCl pH 7.5, 1 mM EDTA, 100 mM KCl, 5% glycerol, 0.1 DTT (unit not given), 0.01 mg/mL BSA; 30 min at 30 C; 10% native PAGE at 4 C
T1 sequence: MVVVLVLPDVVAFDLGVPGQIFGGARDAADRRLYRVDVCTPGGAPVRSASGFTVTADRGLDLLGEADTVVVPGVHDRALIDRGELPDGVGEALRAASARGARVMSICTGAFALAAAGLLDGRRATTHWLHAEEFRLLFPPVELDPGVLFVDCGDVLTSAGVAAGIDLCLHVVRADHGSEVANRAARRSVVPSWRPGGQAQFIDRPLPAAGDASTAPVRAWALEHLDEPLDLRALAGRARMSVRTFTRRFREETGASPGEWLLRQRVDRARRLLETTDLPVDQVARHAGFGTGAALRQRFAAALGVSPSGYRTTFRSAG

[2] = system: T1, APASM_1021 (AdpA-like protein) (Actinosynnema pretiosum ATCC 31280), ORF:1b9350d8; assay: EMSA; conditions: 10 mM Tris-HCl pH 7.5, 1 mM EDTA, 100 mM KCl, 5% glycerol, 0.1 DTT (unit not given), 0.01 mg/mL BSA; 30 min at 30 C; 10% native PAGE at 4 C

Row | Sequence | binding [1] | binding [2]
1 | TGGAGCCGCTGACGGGGAGCCATCGACGGGAAGCCGCTGACCGGCCTCTCCGCGCCGCCACGCGGGCGCCGCACCTGAACCAGGTGCGGCGCCCGCGTGGTCGCGCCCTTTGACCCCGCCCCCGTTCCCCT (double strand) [P4178 unlabeled competitor] | binds | –
2 | TGGAGCCGCTGACGGGGAGCCATCGACGGGAAGCCGCTGACCGGCCTCTCCGCGCCGCCACGCGGGCGCCGCACCTGAACCAGGTGCGGCGCCCGCGTGGTCGCGCCCTTTGACCCCGCCCCCGTTCCCCT (double strand) [P4178] | – | binds
